A short description of series [1]: sedimentation equilibrium AUC, self-association, 25 C.
Series [2] is described as follows: sedimentation equilibrium AUC, self-association, 5 C.
Series [3] is described as follows: sedimentation equilibrium AUC, self-association, 10 C.
Series [4] in a line: sedimentation equilibrium AUC, self-association, 15 C.
Series [5] is described as follows: sedimentation equilibrium AUC, self-association, 20 C.
Series [6] can be described thus: sedimentation equilibrium AUC, self-association, 30 C.

No end group written: not given here.

For GPSQPTAPGDDAPVEDLIRFYDNLQQYLNVVTRHRY-NH2 [aPP^Y7A], the % monomer at 30 µM in series [1] is 98%.
Regarding GPSQPTYPGDDAPVEDLIRAYDNLQQYLNVVTRHRY-NH2 [aPP^F20A], in series [1], the % monomer at 30 µM came to 100%.
Still for that read-out and setting: for GPSQPTAPGDDAPVEDLIRFYDNLRQYLNVVTRHRY-NH2 [aPP^Y7AQ25R] the value was 78%.
The same measure, in the same setting: with GPSQPEAPGDDAPVEDLIRFYDNLQQYLNVVTRHRY-NH2 [aPP^Y7AT6E] the figure was 79%; with GPSQPTYPGDDAPVEDLIRFYDNLQQYLNVVTRHRY (ends and bridges not checked) [avian pancreatic polypeptide (aPP)], 23%.
GPSQPTAPGDDASPEDLIRFYDNLQQYLNVVTRHRY-NH2 [aPP^Y7AP13SV14P]: the % monomer at 30 micromolar total peptide in series [2] came to 74%; in series [3], 82%; in series [4], 84%; in series [5], 90%; in series [1], 90%; in series [6], 98%.
GPSQPTYPGDDAPVEDLIRFADNLQQYLNVVTRHRY-NH2 [aPP^Y21A] yielded a % monomer at 30 µM in series [1] of 14%.
On the same count and under the same terms, with GPSQPTAPGDDAVPEDLIRFYDNLQQYLNVVTRHRY-NH2 [aPP^Y7AP13VV14P] the figure was 90%.

(Values after US20100273722.)
